Substitutions are numbered along the chain they refer to.
Columns and labels:
[1] = target: T1, methylenetetrahydrofolate reductase (tMTHFR) (Thermus thermophilus, UniProt Q5SLG6, E18Q); test: crystal structure ([…] Å, pH […]); type: binding
T1 construct: gene TTHA0327; recombinant, uncleavable C-terminal hexa-Histidine tag
T1 sequence (Q5SLG6 1-296 E18Q): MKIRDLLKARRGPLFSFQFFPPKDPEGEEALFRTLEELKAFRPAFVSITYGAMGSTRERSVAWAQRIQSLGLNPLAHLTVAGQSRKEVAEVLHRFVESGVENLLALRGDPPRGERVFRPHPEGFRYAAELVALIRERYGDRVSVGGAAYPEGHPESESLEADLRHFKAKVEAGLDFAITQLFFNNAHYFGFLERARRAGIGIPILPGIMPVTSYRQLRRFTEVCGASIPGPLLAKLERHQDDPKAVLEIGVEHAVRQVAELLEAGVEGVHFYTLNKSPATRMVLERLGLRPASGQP

[2] = target: the molecule itself; test: crystal structure; tMTHFR cocrystallised with CHO-H4folate, FAD-replete; reservoir 0.1 M sodium acetate pH 4.5, 2.5 M NaCl, 0.2 M lithium sulfate, 1.2% myo-inositol, 4 °C; 1.45 Å
[3] = target: the molecule itself; test: crystal structure; folate-free tMTHFR Glu18Gln, as purified, with 0.6 mM CH3-H4folate; reservoir 0.1 M Hepes pH 7.8, 1 M LiCl, 20% PEG 6000, 20 °C, hanging drop; 1.90 Å

Cc1cc2nc3c(=O)[nH]c(=O)nc-3n(C[C@H](O)[C@H](O)[C@H](O)COP(=O)(O)OP(=O)(O)OC[C@H]3O[C@@H](n4cnc5c(N)ncnc54)[C@H](O)[C@@H]3O)c2cc1C [FAD]
crystal structure (1.90 Å, pH 7.8) [1]: presence of a small-molecule was found in the active site near FAD

B1: Thermus thermophilus HB8 methylenetetrahydrofolate reductase (tMTHFR), wild type (enzyme)
chain: T1 sequence (Q5SLG6 1-296 E18Q) with Q18E
notes: Uncleavable hexa-histidine tag on the C-terminus; Crystallised FAD-replete, with or without CHO-H4folate; also called tMTHFR^wt; MTHFR^wt; not shown: His6, C-terminal, kept
binding result [2]: binds

B2: Thermus thermophilus HB8 methylenetetrahydrofolate reductase Glu18Gln mutant (enzyme)
chain: T1 sequence (Q5SLG6 1-296 E18Q)
notes: methylenetetrahydrofolate reductase of Thermus thermophilus HB8 with Glu18Gln, expressed from pET(tMR^Glu18Gln-H); Uncleavable hexa-histidine tag on the C-terminus; Crystallised as purified, with 0.6 mM CH3-H4folate that could not be assigned in the density; also called tMTHFR^Glu18Gln; MTHFR^Glu18Gln; not shown: His6, C-terminal, kept
binding result [3]: binds
